In patent US10456446B2, “Use of human small leucine zipper protein in osteogenesis procedure” (Korea University Research and Business Foundation, priority 2013, dated 2019):
One block for each molecule: values may come before it.

Target: T1, PPARγ2 (Homo sapiens, UniProt P37231)
T1 construct: expressed in transfected cells; host or cells: 293T
T1 sequence (P37231 1-505): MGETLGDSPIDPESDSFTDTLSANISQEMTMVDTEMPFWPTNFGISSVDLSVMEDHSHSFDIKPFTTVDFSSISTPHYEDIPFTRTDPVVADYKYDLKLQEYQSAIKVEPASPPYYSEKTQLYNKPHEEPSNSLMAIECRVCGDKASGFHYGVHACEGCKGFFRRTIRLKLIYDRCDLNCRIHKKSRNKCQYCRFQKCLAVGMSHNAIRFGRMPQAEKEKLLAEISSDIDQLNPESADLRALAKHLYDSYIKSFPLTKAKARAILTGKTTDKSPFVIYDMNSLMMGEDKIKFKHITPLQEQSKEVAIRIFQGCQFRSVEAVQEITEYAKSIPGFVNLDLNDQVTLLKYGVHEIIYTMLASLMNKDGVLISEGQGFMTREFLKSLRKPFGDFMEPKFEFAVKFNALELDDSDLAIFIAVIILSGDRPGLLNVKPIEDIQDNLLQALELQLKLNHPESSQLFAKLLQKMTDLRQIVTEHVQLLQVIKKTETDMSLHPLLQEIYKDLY
Experiment: PPARγ2 transcriptional activity, FABP4-Luc luciferase reporter in transfected 293T cells
Type: cell-based
Conditions: for PPARγ2 transcriptional activity (relative luciferase activity): sLZIP or deletion mutants 0.1 μg, RZD treated
Experimental: C3H10T1/2 and 293T cells were plated in a 12-well culture dish at a density of 2×10^5 cells/well and incubated for 24 hours. Then, according to instructions of the manufacturer, the cells were transfected with a 0.2 μg of reporter genes and 0.1 to 0.5 μg of a laboratory plasmid using Lipofectamine 2000 or Genefectine. After 24 hours, the cells were cultured in a serum-free DMEM with or without 10 nM of rosiglitazone. siRNAs were prepared using sLZIP and HDAC target sequences (Table 1). For an RNA interference experiment, according to instructions of the manufacturer, the cells were transfected with scrambled control group RNA and appropriate siRNAs using Lipofectamine 2000. Human MSC and C3H10T/1/2 cells were infected with an adenovirus vector containing cDNA of human sLZIP or an empty vector. The infected medium was exchanged with a fresh medium after two hours.
Appropriately transfected cells were washed with cold PBS twice, and a reporter lysis buffer (Promega) was used and lysed in a culture dish. Luciferase analysis was performed using a luciferase analysis system (Promega Corporation, Madison, Wis.). A luciferase activity was recorded in Luminometer 20/20^n (Turner BioSystems, Sunnyvale, Calif.) according to instructions of the manufacturer. The luciferase activity was normalized to a β-galactosidase activity. For β-galactosidase analysis, CMV-β-galactosidase was transfected with luciferase reporter genes. All pieces of data were represented as mean±standard deviation of the results from at least three independent experiments.
In order to examine an effect of sLZIP on the transcriptional activity of PPARγ2, 293T cells were temporarily transfected with PPARγ2 (0.5 μg), β-galactosidase (0.1 μg), FABP4-Luc reporter genes (0.2 μg) and sLZIP at different contents (0.1 to 0.5 μg). After the transfection, the cells were stimulated with or without 10 nM of rosiglitazone (RZD) (FIG. 1A), pioglitazone (PZD) (FIG. 1B), and troglitazone (TZD) (FIG. 1C). A relative luciferase activity was analyzed with or without cell ligand treatment 24 hours after transfection. Also, the 293T cells were transiently transfected with si-sLZIP at different contents (50 and 100 nM), and the cells were treated or not treated with RZD (FIG. 1D). FABP4-Luc stable C3H10T1/2 cells were infected with a sLZIP-expressing adenovirus, and then differentiated into adipocytes for 4 days (FIG. 1E). A luciferase activity was normalized to a β-galactosidase activity and represented as a relative activity (fold change). All experiments were repeated three times, and bars in the graph represent mean±standard deviation. *, P<0.05; **, P<0.01
For this purpose, 293T cells were transiently transfected with PPARγ2 (0.5 μg), β-galactosidase (0.1 μg), FABP4-Luc reporter genes (0.2 μg) and sLZIP (0.1 μg). After the transfection, the cells were stimulated with or without 10 nM of RZD and 10 nM of TSA (FIG. 4A). A promoter activity was measured according to luciferase analysis. In the 293T cells, FABP4-Luc reporter genes, sLZIP, PPAR, β-galactosidase, and 100 nM of si-RNAs and HDAC1, 2, 3 and 8 for a control group were expressed. After the transfection, the cells were stimulated with or without 10 nM of RZD, and a promoter activity was measured (FIG. 4B). 293T cells were temporarily transfected with FABP4-Luc reporter genes, PPARγ2, β-galactosidase, HDAC3 (0.5 μg) and sLZIP (0.1 μg). After the transfection, the cells were stimulated with or without 10 nM of RZD, and luciferase analysis was performed (FIG. 4C). A luciferase activity was normalized to a β-galactosidase activity and represented as a relative intensity (fold change). All experiments were repeated three times, and bars in the graph represent mean±standard deviation. GFP-sLZIP expression constructs were expressed in C3H10T1/2 cells, rabbit anti-HDAC3 antibodies and Texas Red-labeled anti-rabbit antibodies were used and analysis was performed under a fluorescence microscope. The nucleus was stained with DAPI (FIG. 4D). […]

PPARγ2 transcriptional activity (relative luciferase activity): inhibited
B1: N domains of sLZIP: N-terminal deletion mutant of sLZIP (1-228) (protein)
chain: MELELDAGDQDLLAFLLEESGDLGTAPDEAVRAPLDWALPLSEVPSDWEVDDLLCSLLSPPASLNILSSSNPCLVHHDHTYSLPRETVSMDLESESCRKEGTQMTPQHMEELAEQEIARLVLTDEEKSLLEKEGLILPETLPLTKTEEQILKRVRRKIRNKRSAQESRRKKKVYVGGLESRVLKYTAQNMELQNKVQLLEEQNLSLLDQLRKLQAMVIEISNKTSSSS
modifications: left off: a dimerising Fc or GST

sLZIP-mediated PPARγ2 transcriptional activity (sLZIP 0.1 μg together with HDAC3 0.5 μg, with or without 10 nM RZD): significantly down-regulated
B2: sLZIP: human small leucine-zipper protein, isoform of LZIP, 354 amino acids, no transmembrane domain, GenBank FJ263669, SEQ ID NO: 1 (protein, listed as Homo sapiens)
chain: MELELDAGDQDLLAFLLEESGDLGTAPDEAVRAPLDWALPLSEVPSDWEVDDLLCSLLSPPASLNILSSSNPCLVHHDHTYSLPRETVSMDLESESCRKEGTQMTPQHMEELAEQEIARLVLTDEEKSLLEKEGLILPETLPLTKTEEQILKRVRRKIRNKRSAQESRRKKKVYVGGLESRVLKYTAQNMELQNKVQLLEEQNLSLLDQLRKLQAMVIEISNKTSSSSMYSSDTRGSLPAEHGVLSRQLRALPSEDPYQLELPALQSEVPKDSTHQWLDGSDCVLQAPGNTSCLLHYMPQAPSAEPPLEWPFPDLFSEPLCRGPILPLQANLTRKGGWLPTGSPSVILQDRYSG
transcriptional activity of PPARγ2 (relative luciferase activity) (sLZIP 0.1 μg, cells treated with 10 nM TSA): did not decrease the transcriptional activity of PPARγ2
transcriptional activity of PPARγ2 (relative luciferase activity) (sLZIP 0.1 μg, no TSA): inhibits the transcriptional activity of PPARγ2
transcriptional activity of PPARγ2 (relative luciferase activity) (sLZIP 0.1 to 0.5 μg, with or without 10 nM RZD, PZD or TZD, 24 hours): inhibits the transcriptional activity of PPARγ2 in a concentration-dependent manner
PPARγ2 transcriptional activity (relative luciferase activity): still inhibited the PPARγ2 transcriptional activity
